Test results: PMC10397247

What was measured:
4H1809-AA = biological target: T1, 4H1809-AA; assay: two-hybrid library CCmax; conditions: mean of both orientations;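 further: natural log of median RNA to DNA barcode read ratio; higher means stronger binding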
T1 chain: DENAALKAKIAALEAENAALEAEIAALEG

4H1064-AA = biological target: T2, 4H1064-AA; assay: two-hybrid library CCmax; conditions: mean of both orientations;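 further: natural log of median RNA to DNA barcode read ratio; higher means stronger binding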
T2 chain: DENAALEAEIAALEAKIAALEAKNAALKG

4H1348-AA = biological target: T3, 4H1348-AA; assay: two-hybrid library CCmax; conditions: mean of both orientations;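 further: natural log of median RNA to DNA barcode read ratio; higher means stronger binding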
T3 chain: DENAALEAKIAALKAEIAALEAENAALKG

4H428-AA = biological target: T4, 4H428-AA; assay: two-hybrid library CCmax; conditions: mean of both orientations;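 further: natural log of median RNA to DNA barcode read ratio; higher means stronger binding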
T4 chain: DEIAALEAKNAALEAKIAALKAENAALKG

4H146-AA = biological target: T5, 4H146-AA; assay: two-hybrid library CCmax
T5 chain: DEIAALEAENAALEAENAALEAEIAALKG

4H2991-AA = biological target: T6, 4H2991-AA; assay: two-hybrid library CCmax; conditions: mean of both orientations
T6 chain: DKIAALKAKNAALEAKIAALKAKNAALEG

4H391-AA = biological target: T7, 4H391-AA; assay: two-hybrid library CCmax; conditions: mean of both orientations
T7 chain: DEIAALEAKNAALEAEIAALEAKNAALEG

4H2283-AA = biological target: T8, 4H2283-AA; assay: two-hybrid library CCmax; conditions: mean of both orientations
T8 chain: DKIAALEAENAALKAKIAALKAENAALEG

4H675-AA = biological target: T9, 4H675-AA; assay: two-hybrid library CCmax; conditions: mean of both orientations
T9 chain: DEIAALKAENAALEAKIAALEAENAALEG

4H1854-AA = biological target: T10, 4H1854-AA; assay: two-hybrid library CCmax; conditions: mean of both orientations
T10 chain: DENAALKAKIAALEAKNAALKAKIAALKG

4H1109-AA = biological target: T11, 4H1109-AA; assay: two-hybrid library CCmax; conditions: mean of both orientations
T11 chain: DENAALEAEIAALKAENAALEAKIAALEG

4H3066-AA = biological target: T12, 4H3066-AA; assay: two-hybrid library CCmax; conditions: mean of both orientations
T12 chain: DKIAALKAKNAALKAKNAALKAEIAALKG

4H1146-AA = biological target: T13, 4H1146-AA; assay: two-hybrid library CCmax; conditions: mean of both orientations
T13 chain: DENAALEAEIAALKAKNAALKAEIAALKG

4H3417-AA = biological target: T14, 4H3417-AA; assay: two-hybrid library CCmax; conditions: mean of both orientations
T14 chain: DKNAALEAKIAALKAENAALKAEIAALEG

4H3628-AA = biological target: T15, 4H3628-AA; assay: two-hybrid library CCmax; conditions: mean of both orientations
T15 chain: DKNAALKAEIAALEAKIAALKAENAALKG

4H971-AA = biological target: T16, 4H971-AA; assay: two-hybrid library CCmax; conditions: mean of both orientations
T16 chain: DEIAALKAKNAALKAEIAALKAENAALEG

4H497-AA = biological target: T17, 4H497-AA; assay: two-hybrid library CCmax; conditions: mean of both orientations
T17 chain: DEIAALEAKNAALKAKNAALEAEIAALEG

4H2948-AA = biological target: T18, 4H2948-AA; assay: two-hybrid library CCmax; conditions: mean of both orientations
T18 chain: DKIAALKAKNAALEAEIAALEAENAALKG

4H2713-AA = biological target: T19, 4H2713-AA; assay: two-hybrid library CCmax
T19 chain: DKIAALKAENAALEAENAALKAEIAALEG

4H3666-AA = biological target: T20, 4H3666-AA; assay: two-hybrid library CCmax; conditions: mean of both orientations
T20 chain: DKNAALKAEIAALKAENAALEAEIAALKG

4H2248-AA = biological target: T21, 4H2248-AA; assay: two-hybrid library CCmax; conditions: mean of both orientations
T21 chain: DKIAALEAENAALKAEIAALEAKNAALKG

4H3102-AA = biological target: T22, 4H3102-AA; assay: two-hybrid library CCmax; conditions: mean of both orientations
T22 chain: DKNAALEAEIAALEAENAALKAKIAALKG

4H3029-AA = biological target: T23, 4H3029-AA; assay: two-hybrid library CCmax; conditions: mean of both orientations
T23 chain: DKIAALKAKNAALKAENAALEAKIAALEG

4H1035-AA = biological target: T24, 4H1035-AA; assay: two-hybrid library CCmax
T24 chain: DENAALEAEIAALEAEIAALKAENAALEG

4H1391-AA = biological target: T25, 4H1391-AA; assay: two-hybrid library CCmax; conditions: mean of both orientations
T25 chain: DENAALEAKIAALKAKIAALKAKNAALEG

4H3446-AA = biological target: T26, 4H3446-AA; assay: two-hybrid library CCmax; conditions: mean of both orientations
T26 chain: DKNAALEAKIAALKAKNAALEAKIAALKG

4H189-AA = biological target: T27, 4H189-AA; assay: two-hybrid library CCmax; conditions: mean of both orientations
T27 chain: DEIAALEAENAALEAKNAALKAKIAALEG

4H3709-AA = biological target: T28, 4H3709-AA; assay: two-hybrid library CCmax; conditions: mean of both orientations
T28 chain: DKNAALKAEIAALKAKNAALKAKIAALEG

4H3591-AA = biological target: T29, 4H3591-AA; assay: two-hybrid library CCmax; conditions: mean of both orientations
T29 chain: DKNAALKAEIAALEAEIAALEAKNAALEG

4H656-AA = biological target: T30, 4H656-AA; assay: two-hybrid library CCmax; conditions: mean of both orientations
T30 chain: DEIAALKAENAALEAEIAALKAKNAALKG

4H3920-AA = biological target: T31, 4H3920-AA; assay: two-hybrid library CCmax; conditions: mean of both orientations
T31 chain: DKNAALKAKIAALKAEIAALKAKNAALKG

4H478-AA = biological target: T32, 4H478-AA; assay: two-hybrid library CCmax; conditions: mean of both orientations
T32 chain: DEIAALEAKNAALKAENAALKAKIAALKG

4H3121-AA = biological target: T33, 4H3121-AA; assay: two-hybrid library CCmax; conditions: mean of both orientations
T33 chain: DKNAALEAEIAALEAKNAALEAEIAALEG

4H2742-AA = biological target: T34, 4H2742-AA; assay: two-hybrid library CCmax; conditions: mean of both orientations
T34 chain: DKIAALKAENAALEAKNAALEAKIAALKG

4H3939-AA = biological target: T35, 4H3939-AA; assay: two-hybrid library CCmax; conditions: mean of both orientations
T35 chain: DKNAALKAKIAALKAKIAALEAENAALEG

4H2576-bN = biological target: T36, 4H2576-bN; assay: two-hybrid library CCNG1
T36 chain: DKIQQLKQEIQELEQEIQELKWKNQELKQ

4H370-bN = biological target: T37, 4H370-bN; assay: two-hybrid library CCNG1
T37 chain: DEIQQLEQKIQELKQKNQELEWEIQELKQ

4H462-bN = biological target: T38, 4H462-bN; assay: two-hybrid library CCNG1
T38 chain: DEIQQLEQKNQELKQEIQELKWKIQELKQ

4H607-bN = biological target: T39, 4H607-bN; assay: two-hybrid library CCNG1
T39 chain: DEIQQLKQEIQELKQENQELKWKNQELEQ

4H967-bN = biological target: T40, 4H967-bN; assay: two-hybrid library CCNG1
T40 chain: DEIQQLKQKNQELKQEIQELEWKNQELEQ

4H918-bN = biological target: T41, 4H918-bN; assay: two-hybrid library CCNG1
T41 chain: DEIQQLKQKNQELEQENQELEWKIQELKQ

4H331-bN = biological target: T42, 4H331-bN; assay: two-hybrid library CCNG1
T42 chain: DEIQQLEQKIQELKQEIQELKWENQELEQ

4H3782-bN = biological target: T43, 4H3782-bN; assay: two-hybrid library CCNG1
T43 chain: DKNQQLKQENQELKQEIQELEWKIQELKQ

4H264-bH = biological target: T44, 4H264-bH; assay: two-hybrid library CCNG1
T44 chain: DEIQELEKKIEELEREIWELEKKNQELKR

4H953-bN = biological target: T45, 4H953-bN; assay: two-hybrid library CCNG1
T45 chain: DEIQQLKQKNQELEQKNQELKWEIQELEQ

4H3843-bN = biological target: T46, 4H3843-bN; assay: two-hybrid library CCNG1
T46 chain: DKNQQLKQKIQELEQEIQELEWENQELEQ

4H1446-bN = biological target: T47, 4H1446-bN; assay: two-hybrid library CCNG1
T47 chain: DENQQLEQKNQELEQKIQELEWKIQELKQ

4H797-bN = biological target: T48, 4H797-bN; assay: two-hybrid library CCNG1
T48 chain: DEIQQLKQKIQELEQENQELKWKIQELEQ

4H2667-bN = biological target: T49, 4H2667-bN; assay: two-hybrid library CCNG1
T49 chain: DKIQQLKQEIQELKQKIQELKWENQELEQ

4H1369-bN = biological target: T50, 4H1369-bN; assay: two-hybrid library CCNG1
T50 chain: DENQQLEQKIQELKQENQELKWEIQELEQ

4H2697-bN = biological target: T51, 4H2697-bN; assay: two-hybrid library CCNG1
T51 chain: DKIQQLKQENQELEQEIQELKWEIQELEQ

4H72-bN = biological target: T52, 4H72-bN; assay: two-hybrid library CCNG1
T52 chain: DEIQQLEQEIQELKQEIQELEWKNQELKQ

4H1328-bN = biological target: T53, 4H1328-bN; assay: two-hybrid library CCNG1
T53 chain: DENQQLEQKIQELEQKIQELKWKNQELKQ

4H687-bN = biological target: T54, 4H687-bN; assay: two-hybrid library CCNG1
T54 chain: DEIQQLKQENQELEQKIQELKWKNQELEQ

4H883-bN = biological target: T55, 4H883-bN; assay: two-hybrid library CCNG1
T55 chain: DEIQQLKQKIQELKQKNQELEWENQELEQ

4H1845-bN = biological target: T56, 4H1845-bN; assay: two-hybrid library CCNG1
T56 chain: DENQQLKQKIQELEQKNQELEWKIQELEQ

4H2610-bN = biological target: T57, 4H2610-bN; assay: two-hybrid library CCNG1
T57 chain: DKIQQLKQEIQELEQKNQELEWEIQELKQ

4H3606-bN = biological target: T58, 4H3606-bN; assay: two-hybrid library CCNG1
T58 chain: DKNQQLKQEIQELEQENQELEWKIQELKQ

4H4001-bN = biological target: T59, 4H4001-bN; assay: two-hybrid library CCNG1
T59 chain: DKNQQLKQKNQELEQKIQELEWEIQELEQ

4H568-bN = biological target: T60, 4H568-bN; assay: two-hybrid library CCNG1
T60 chain: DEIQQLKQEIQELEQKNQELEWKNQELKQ

4H3189-bN = biological target: T61, 4H3189-bN; assay: two-hybrid library CCNG1
T61 chain: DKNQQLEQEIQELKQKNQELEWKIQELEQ

Binder: DENAALEAEIAALEAEIAALKAENAALEG [4H1035-AA]
- interaction score (4H1809-AA): -1.83
- interaction score (4H1064-AA): -0.486
- interaction score (4H1348-AA): 1.45
- interaction score (4H428-AA): -1.35
- interaction score (4H146-AA): -1.39
- interaction score (4H2991-AA): -1.12
- interaction score (4H391-AA): -1.84
- interaction score (4H2283-AA): -1.67
- interaction score (4H675-AA): -2.03
- interaction score (4H1854-AA): -0.616
- interaction score (4H1109-AA): -1.69
- interaction score (4H3066-AA): -0.363
- interaction score (4H1146-AA): -1.34
- interaction score (4H3417-AA): -1.73
- interaction score (4H3628-AA): 1.36
- interaction score (4H971-AA): -0.881
- interaction score (4H497-AA): -1.73
- interaction score (4H2948-AA): -1.56
- interaction score (4H2713-AA): -1.63
- interaction score (4H3666-AA): -1.55
- interaction score (4H2248-AA): -1.39
- interaction score (4H3102-AA): -1.34
- interaction score (4H3029-AA): -2.17
- interaction score (4H1035-AA): -0.719
- interaction score (4H1391-AA): 0.63
- interaction score (4H3446-AA): -1.17
- interaction score (4H189-AA): -1.24
- interaction score (4H3709-AA): -0.573
- interaction score (4H3591-AA): -1.08
- interaction score (4H656-AA): -1.67
- interaction score (4H3920-AA): 1.9
- interaction score (4H478-AA): -1.03
- interaction score (4H3121-AA): -1.67
- interaction score (4H2742-AA): -1.51
- interaction score (4H3939-AA): 0.466

Binder: DENQQLEQKIQELEQKIQELKWKNQELKQ [4H1328-bN]
- interaction score (4H2576-bN): 1.57
- interaction score (4H370-bN): -0.748
- interaction score (4H462-bN): -1.6
- interaction score (4H607-bN): -0.376
- interaction score (4H967-bN): 0.0544
- interaction score (4H918-bN): -0.287
- interaction score (4H331-bN): 1.8
- interaction score (4H3782-bN): -1.38
- interaction score (4H264-bH): 1.68
- interaction score (4H953-bN): -0.513
- interaction score (4H3843-bN): 1.16
- interaction score (4H1446-bN): 0.527
- interaction score (4H797-bN): -0.686
- interaction score (4H2667-bN): 1.46
- interaction score (4H1369-bN): -0.223
- interaction score (4H2697-bN): -0.465
- interaction score (4H72-bN): 0.764
- interaction score (4H1328-bN): 0.393
- interaction score (4H687-bN): 0.403
- interaction score (4H883-bN): 0.625
- interaction score (4H1845-bN): -1.61
- interaction score (4H2610-bN): 0.84
- interaction score (4H3606-bN): -0.42
- interaction score (4H4001-bN): 1.19
- interaction score (4H568-bN): -0.31
- interaction score (4H3189-bN): -0.232
